Assay [1] concerns the target unanchored wild-type K63-linked di-Ub (UniProt P0CG48). Kind of assay: cell-based or functional assay.
Assay [2] deals with donor ubiquitin (Ub^D), from His-TEV-Ub^WT (UniProt P0CG48 1-76, in the crystal: G76 isopeptide-linked to K92 of UBE2K). Kind of assay: crystal structure.

B1: UBE2K^WT (enzyme)
chain: MANIAVQRIKREFKEVLKSEETSKNQIKVDLVDENFTELRGEIAGPPDTPYEGGRYQLEIKIPETYPFNPPKVRFITKIWHPNISSVTGAICLDILKDQWAAAMTLRTVLLSLQALLAAAEPDDPQDAVVANQYKQNPEMFKQTARLWAHVYAGAPVSSPEYTKKIENLCAMGFDRNAVIVALSSKSWDVETATELLLSN
Consider B1, for which the “k cat/K m of tri-Ub formation, K63-Ub2 as acceptor” value in assay [1] was 418 M⁻¹ s⁻¹.

B2: UBE2K^C92K,K97R,D124C,C170S (enzyme)
chain: MANIAVQRIKREFKEVLKSEETSKNQIKVDLVDENFTELRGEIAGPPDTPYEGGRYQLEIKIPETYPFNPPKVRFITKIWHPNISSVTGAIKLDILRDQWAAAMTLRTVLLSLQALLAAAEPDCPQDAVVANQYKQNPEMFKQTARLWAHVYAGAPVSSPEYTKKIENLSAMGFDRNAVIVALSSKSWDVETATELLLSN
Consider B2, for which the binding result in assay [2] is reported as “binds”.
